Test results taken from the supplement of paper PMC9732359.
± gives the uncertainty stated by the source.

Test: protein stability index of a GFP-peptide fusion (yeast GPS) (PSI 1-4); higher = more stable; sorted into four equal gates, so the index is relative within each strain
How it was run: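 Tiled 17-residue yeast protein peptides were fused downstream of GFP in a plasmid that also expresses Cherry, and the pooled library was carried in yeast. Mid-log cultures in leucine-free medium were sorted into four equal gates by GFP/Cherry fluorescence ratio, and plasmids from each gate were PCR-amplified and Illumina-sequenced, with reads assigned to strains by barcodes. The protein stability index for each peptide was each gate's read frequency times its gate number, summed.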

Sequence | protein stability index (doa10∆) | protein stability index (pdr5∆) | protein stability index (san1∆) | protein stability index (ubr1∆)
KSLDAETEAEEDHMLKK [RPO21] | 3.15 ± 0.29 | 2.56 ± 0.21 | 3.19 ± 0.1 | 3.16 ± 0.094
EYKLATYGVPGSENKRG [NUT1] | 3.36 ± 0.086 | 3.25 ± 0.093 | 3.33 ± 0.046 | 2.96 ± 0.065
NKNGENKKIGKRPPEIM [SIR4] | 3.09 ± 0.12 | 3.21 ± 0.11 | 3.28 ± 0.14 | 3.28 ± 0.091
SPASGIVDKYIGESARI [RPT4] | 2.95 ± 0.27 | 2.84 ± 0.18 | 2.45 ± 0.16 | –
IVMQLRKCCNHPYLFEG [ISW2] | 2.78 ± 0.087 | 2.53 ± 0.11 | 2.74 ± 0.069 | 2.78 ± 0.11
LVADGVFYAELNEFFTR [RPS3] | 3.2 ± 0.12 | 3.1 ± 0.12 | 3.08 ± 0.077 | 3.28 ± 0.078
VTKITDMLLHKYYIVSS [SRB8] | 1.45 ± 0.076 | 1.14 ± 0.068 | 1.65 ± 0.15 | 1.57 ± 0.077
TTSERVSNENKKNIDYQ [RRI1] | 2.98 ± 0.083 | 3.03 ± 0.09 | 3.13 ± 0.085 | 3.05 ± 0.18
DIGKGAETTFLQDVIAL [RPC53] | 2.52 ± 0.073 | 2.31 ± 0.1 | 2.38 ± 0.11 | 2.71 ± 0.056
NVPWPQNSYADKVTSQA [RPP1] | 2.04 ± 0.094 | 2.19 ± 0.15 | 1.83 ± 0.1 | 2.25 ± 0.096
LSLMLESPNYCNALIHI [SRB4] | 1.52 ± 0.044 | 1.78 ± 0.035 | 1.72 ± 0.075 | 1.75 ± 0.035
QNENLPSDKSDSMVDKE [SSN2] | 3.07 ± 0.13 | 2.64 ± 0.096 | 2.73 ± 0.091 | 2.57 ± 0.077
EQSLEVFIFPTSNWEIY [SRB8] | 2.47 ± 0.067 | 2.2 ± 0.048 | 2.57 ± 0.044 | 2.52 ± 0.033
TNQLVLLQKMLNLLNYQ [YML103C/NUP188] | 1.99 ± 0.04 | 1.43 ± 0.03 | 1.29 ± 0.056 | 1.43 ± 0.031
ISQKLTNVNVKIKDVQQ [SMC3] | 1.97 ± 0.12 | 2.34 ± 0.064 | 2.27 ± 0.14 | 2.32 ± 0.19
FAGVASKKVTSGVPRLK [RPO21] | 3.03 ± 0.2 | 3.08 ± 0.2 | – | –
KTEYVLNDLNHLLVQLQ [REC8] | – | 3.02 ± 0.25 | – | 3.02 ± 0.094
SASHFEQYTKKINSWDQ [YJL041W/NSP1] | 2.8 ± 0.076 | 3.06 ± 0.061 | 2.69 ± 0.083 | 3.02 ± 0.052
NSNTNLNSLSPQAILAK [SWI1] | 2.28 ± 0.046 | 1.93 ± 0.033 | 1.92 ± 0.054 | 2.02 ± 0.03
LSIRLTNQLKSLKGLQS [RPN8] | 1.48 ± 0.17 | 1.49 ± 0.16 | 2.62 ± 0.19 | 1.24 ± 0.079
YGEATSPFGAYGEAPTS [RPO21] | 2.48 ± 0.065 | 2.58 ± 0.049 | 2.9 ± 0.064 | 2.79 ± 0.054
TTPEINNFIVERVQSDE [SRP68] | 3.18 ± 0.15 | 3.38 ± 0.14 | 3.37 ± 0.097 | 2.88 ± 0.13
IDGKTVSYKDYSIFLEN [SMC1] | 2.72 ± 0.062 | 3.07 ± 0.057 | 2.85 ± 0.061 | 2.89 ± 0.046
TISKESTPDQRKRVYNI [ESC2] | 2.92 ± 0.15 | 3.16 ± 0.24 | 3.11 ± 0.17 | 3.01 ± 0.099
CDKSVCRKCYARLPPRA [RPL40A] | 2.5 ± 0.078 | 2.93 ± 0.073 | 2.56 ± 0.07 | 2.66 ± 0.062
TTSEATANDRQINNVHL [RPN4] | 2.97 ± 0.11 | 2.91 ± 0.079 | 2.49 ± 0.087 | 2.7 ± 0.097
EVDKSKLITTYISLLKL [YDL116W/NUP84] | 2.66 ± 0.08 | 1.45 ± 0.06 | 1.27 ± 0.13 | 1.43 ± 0.046

Sequence | protein stability index (doa10∆) | protein stability index (pdr5∆) | protein stability index (san1∆) | protein stability index (ubr1∆)
TSLKCLVNRKPIPFEFQ [SNF2] | 2.56 ± 0.054 | 2.21 ± 0.043 | 2.13 ± 0.053 | 2.19 ± 0.03
FGATTNDDKKTEPDKPA [YJL041W/NSP1] | 1.55 ± 0.098 | 2.48 ± 0.097 | 2.61 ± 0.15 | 2.65 ± 0.11
FEVEMILMQQQMMARMA [SRP54] | 1.17 ± 0.12 | 1.19 ± 0.076 | 2.34 ± 0.15 | 1.73 ± 0.27
RKILKKTFKNPKYESLK [RPN5] | 2.87 ± 0.094 | 2.96 ± 0.07 | 3.18 ± 0.094 | 3.19 ± 0.062
KTDTKVSFRTHNSHLSL [SRP21] | 3.03 ± 0.059 | 3.06 ± 0.053 | 2.92 ± 0.053 | 3.15 ± 0.048
DVPSEDDPTQLVSRGGC [RPO21] | 3.61 ± 0.28 | 3.06 ± 0.15 | 2.97 ± 0.21 | 3.01 ± 0.15
CRNILGVTSLIKNLGLP [RPP1] | 1.81 ± 0.054 | 1.58 ± 0.051 | 1.23 ± 0.092 | 1.75 ± 0.045
QANQVKRHSYAQSSHIR [RPS1A] | 2.528 ± 0.023 | 2.622 ± 0.021 | 2.564 ± 0.025 | 2.471 ± 0.019
TTLKLSPSPILLTSAGC [NUT1] | 1.47 ± 0.043 | 1.42 ± 0.039 | 1.45 ± 0.09 | 1.51 ± 0.036
RQKNVIHRAARPTRPDK [RPL15A] | 3.31 ± 0.17 | 3.69 ± 0.16 | 3.27 ± 0.066 | 3.24 ± 0.2
NPLMYSGGNNTATIINN [PCI8] | 2.93 ± 0.064 | 2.9 ± 0.057 | 3.12 ± 0.05 | 3.11 ± 0.045
IITSGRDTREVLEERER [ARP9] | 3.41 ± 0.16 | 3.36 ± 0.14 | 3.52 ± 0.065 | 3.52 ± 0.1
SDLGTVVFDSNEAPPKT [YMR153W/NUP53] | 3.17 ± 0.057 | 3.13 ± 0.051 | 2.6 ± 0.076 | 2.58 ± 0.069
YQLYTSNPSGNYTGWKA [PRE9] | 2.9 ± 0.065 | 3.08 ± 0.065 | 3.14 ± 0.055 | 3.17 ± 0.04
WYQFSNSKDHKKITLQL [SIN4] | 3.35 ± 0.13 | 3.47 ± 0.12 | 2.47 ± 0.22 | 2.86 ± 0.068
GRQTVLIKDNSAMVTTA [SRB2] | – | 1.8 ± 0.28 | – | –
QQRGITYLNEVLEKDAA [YGR119C/NUP57] | 3.16 ± 0.093 | 3.27 ± 0.079 | 3.33 ± 0.061 | 3.13 ± 0.09
VLESIVARTFWASKYGQ [BRR2] | 2.74 ± 0.063 | 2.37 ± 0.062 | 2.47 ± 0.096 | 2.61 ± 0.067
EQKNTAKEELNGLKDQL [YIL149C/MLP2] | 3.19 ± 0.1 | 3.32 ± 0.16 | 3.12 ± 0.054 | 3.31 ± 0.07
TDVEKSDPAAKKTATEP [SRP21] | 3.2 ± 0.11 | 3.02 ± 0.085 | 3.32 ± 0.046 | 3.18 ± 0.096
TKAVEFSMGHIRSSSVS [MED4] | 3.26 ± 0.12 | 3.38 ± 0.093 | 3.18 ± 0.078 | 2.99 ± 0.078
DRCVDPEDPYFNTLVRI [DIS3] | 3.39 ± 0.11 | 3.41 ± 0.11 | 3.48 ± 0.058 | 3.4 ± 0.048
NTEEKAELQSNLQVELL [YGL100W/SEH1] | 3.06 ± 0.064 | 3.02 ± 0.087 | 1.96 ± 0.13 | 2.74 ± 0.083
GEHISAIVPGQSISGTL [SWP82] | 3.41 ± 0.15 | 3.05 ± 0.13 | 2.97 ± 0.17 | –
ILSGFHNAGPVAGAGAA [RPP1B] | 3.01 ± 0.072 | 2.97 ± 0.061 | 2.74 ± 0.07 | 2.65 ± 0.099
PVRTIVPISTSQTNNSF [SIR4] | 2.04 ± 0.04 | 2.2 ± 0.047 | 2.22 ± 0.052 | 2.28 ± 0.034
VLKFLTDLEKKHLWDQK [RPC17] | 3.14 ± 0.24 | 3.41 ± 0.16 | 3.18 ± 0.14 | 3.47 ± 0.14
